Patent publication US20120277144

Target: cdc42, P60953
Sequence (P60953 1-188): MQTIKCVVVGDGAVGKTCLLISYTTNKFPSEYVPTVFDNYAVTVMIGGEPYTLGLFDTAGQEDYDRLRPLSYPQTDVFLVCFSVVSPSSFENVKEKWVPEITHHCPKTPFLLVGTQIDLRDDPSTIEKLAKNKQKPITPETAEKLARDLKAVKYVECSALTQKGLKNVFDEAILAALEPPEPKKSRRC

B1: FYVE, RhoGEF and PH domain-containing 5 (FGD5) (protein)
chain: MFRGPKPPIAPKPRLTAPNEWRASVYLNDSLNKCSNGRLPCVDRGLDEGPRSIPKCSESETDEDYIVVPRVPLREDEPKDEGSVGNKALVSPESSAEEEEEREEGGEACGLEGTGAGEDSVAPAAPGAGALSREGEEGTDLALEDEGEGCADEPGTLEQVSRSEEEEKLVQPHRECSLEDSGPWAGEGVFQSDLLLPHIHGEDQEPPDTPGEAEEDDEEGCASTDPAGADEGSGPDRPTEDMGQDAEDTSEEPPEKEELAGVQEAETATDCPEVLEEGCEEATGVTGGEQVDLSEPPDHEKKTNQEVAAATLEDHAQDESAEESCQIVPFENDCMEDFVTSLTGSPYEFFPTESTSFCSESCSPLSESAKGLESEQAPKLGLRAEENPMVGALCGQCGSLQGGAAEGPAAPDVVVVLEEEALDDALANPYVMGVGLPGQAAPGEGGQAASDALGGYGSKEELNCEAEGGLVPADRKNTSTRVRPHSGKVAGYVPETVPEETGPEAGSSAPGIGGAAEEVGKTLLSLEGKPLEASRALPAKPRAFTLYPRSFSVEGREIPVSVYQEPEGSGLDDHRIKRKEDNLSLSCVIGSSGSFSQRNHLPSSGTSTPSSMVDIPPPFDLACITKKPITKSSPSLLIESDSPDKYKKKKSSFKRFLALTFKKKTENKLHVDVNVSSSRSSSESSYHGPSRILEVDRRSLSNSPQLKSRTGKLRASESPSSLIFYRDGKRKGVPFSRTVSRVESFEDRSRPPFLPLPLTKPRSISFPSADTSDYENIPAMNSDYENIQIPPRRPARAGAFTKLFEDQSRALSTANENDGYVDMSSFNAFESKQQSADQDAESAYTEPYKVCPISSAAPKEDLTSDEEQRSSEEEDSASRDPSVTHKVEGQSRALVIAQELLSSEKAYVEMLQHLNLDFHGAVMRALDDMDHEGRDTLAREELRQGLSELPAIHDLHQGILEELEERLSNWESQQKVADVFLAREQGFDHHATHILQFDRYLGLLSENCLHSPRLAAAVREFEQSVQGGSQTAKHRLLRVVQRLFQYQVLLTDYLNNLCPDSAEYDNTQGALSLISKVTDRANDSMEQGENLQKLVHIEHSVRGQGDLLQPGREFLKEGTLMKVTGKNRRPRHLFLMNDVLLYTYPQKDGKYRLKNTLAVANMKVSRPVMEKVPYALKIETSESCLMLSASSCAERDEWYGCLSRALPEDYKAQALAAFHHSVEIRERLGVSLGERPPTLVPVTHVMMCMNCGCDFSLTLRRHHCHACGKIVCRNCSRNKYPLKYLKDRMAKVCDGCFGELKKRGRAVPGLMRERPVSMSFPLSSPRFSGSAFSSVFQSINPSTFKKQKKVPSALTEVAASGEGSAISGYLSRCKRGKRHWKKLWFVIKGKVLYTYMASEDKVALESMPLLGFTIAPEKEEGSSEVGPIFHLYHKKTLFYSFKAEDTNSAQRWIEAMEDASVL
- GTP-cdc42 level in a GEF-activity assay (G-lisa, chemo-luminescent measurement of GTP-bound small G-proteins in lysates of Sham Ad or Ad-FGD5 transfected HUVECs): cdc42-FGD5 binding led to specific activation of cdc42 in a GEF-activity assay
